Molecular target: probable NS4B (27 kDa), expressed from pTM1-NS25 (hepatitis C virus, UniProt P26664)
Assay: co-immunoprecipitation with anti-E2 antibody from lysates of cells co-transfected with pTM1-NS25

B1: E2 species encoded by the template terminating at amino acid 699 (other)
chain: ETHVTGGSAGHTVSGFVSLLAPGAKQNVQLINTNGSWHLNSTALNCNDSLNTGWLAGLFYHHKFNSSGCPERLASCRPLTDFDQGWGPISYANGSGPDQRPYCWHYPPKPCGIVPAKSVCGPVYCFTPSPVVVGTTDRSGAPTYSWGENDTDVFVLNNTRPPLGNWFGCTWMNSTGFTKVCGAPPCVIGGAGNNTLHCPTDCFRKHPDATYSRCGSGPWITPRCLVDYPYRLWHYPCTINYTIFKIRMYVGGVEHRLEAACNWTRGERCDLEDRDRSELSPLLLTTTQWQVLPCSFTTLPALSTGLIHLHQNIVDV
B1: no binding.
